Assay results taken from PMC3652857, “A Cryptic Targeting Signal Creates a Mitochondrial FEN1 Isoform with Tailed R-Loop Binding Properties”.

Columns and labels:
[1] = biological target: T1, FENMIT (human, UniProt P39748-2 1-316); assay: EMSA; 25 mM Tris pH 8.0, 1 mM DTT, 0.1 mg/ml BSA, 6% glycerol; 0.2 nM 32P substrate; 1 h on ice; 10% native PAGE in tris-borate; conditions: protein: recombinant, tags: His
[2] = biological target: FEN1 D181A (human, UniProt P39748 1-380, D181A); assay: as above; conditions: protein: recombinant; tags: His; label: 5'-32P on 19DNA; equilibrating double flap: 19 nt 5' DNA flap, 1 nt 3' flap
[3] = biological target: FEN1 (FEN1-1.His) (human, UniProt P39748 1-380); assay: as above; conditions: protein: recombinant; tags: His; label: 5'-32P on 19DNA; equilibrating double flap: 19 nt 5' DNA flap, 1 nt 3' flap
[4] = biological target: T1, FENMIT; assay: EMSA; 1-50 nM FENMIT; 25 mM Tris pH 8.0, 1 mM DTT, 0.1 mg/ml BSA, 6% glycerol; 0.2 nM 32P substrate; 1 h on ice; 10% native PAGE in tris-borate; conditions: protein: recombinant; tags: His; label: 5'-32P; single strand
[5] = biological target: T1, FENMIT; assay: competition; 25 nM FENMIT; cold RNA44 0-5 nM; 25 mM Tris pH 8.0, 1 mM DTT, 0.1 mg/ml BSA, 6% glycerol; 0.2 nM 32P substrate; 1 h on ice; 10% native PAGE in tris-borate; conditions: protein: recombinant; tags: His; label: 5'-32P on RNA44; equilibrating full 5' RNA flap, 1 nt 3' DNA flap
[6] = biological target: T1, FENMIT; assay: EMSA; 1-50 nM FENMIT; equal to short 3' flap; 25 mM Tris pH 8.0, 1 mM DTT, 0.1 mg/ml BSA, 6% glycerol; 0.2 nM 32P substrate; 1 h on ice; 10% native PAGE in tris-borate; conditions: protein: recombinant; tags: His; label: 5'-32P on RNA44; 5' RNA flap with 20 nt 3' DNA flap

T1 sequence (P39748 65-380): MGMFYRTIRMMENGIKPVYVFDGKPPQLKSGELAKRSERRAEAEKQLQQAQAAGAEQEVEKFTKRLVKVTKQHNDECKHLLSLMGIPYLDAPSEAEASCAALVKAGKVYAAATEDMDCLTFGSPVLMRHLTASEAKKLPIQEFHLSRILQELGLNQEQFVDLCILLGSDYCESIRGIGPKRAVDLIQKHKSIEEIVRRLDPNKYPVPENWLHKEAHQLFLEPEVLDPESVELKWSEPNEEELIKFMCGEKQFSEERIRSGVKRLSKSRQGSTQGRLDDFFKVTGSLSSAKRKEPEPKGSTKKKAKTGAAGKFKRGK
Sequence of FEN1 (FEN1-1.His) (P39748 whole entry): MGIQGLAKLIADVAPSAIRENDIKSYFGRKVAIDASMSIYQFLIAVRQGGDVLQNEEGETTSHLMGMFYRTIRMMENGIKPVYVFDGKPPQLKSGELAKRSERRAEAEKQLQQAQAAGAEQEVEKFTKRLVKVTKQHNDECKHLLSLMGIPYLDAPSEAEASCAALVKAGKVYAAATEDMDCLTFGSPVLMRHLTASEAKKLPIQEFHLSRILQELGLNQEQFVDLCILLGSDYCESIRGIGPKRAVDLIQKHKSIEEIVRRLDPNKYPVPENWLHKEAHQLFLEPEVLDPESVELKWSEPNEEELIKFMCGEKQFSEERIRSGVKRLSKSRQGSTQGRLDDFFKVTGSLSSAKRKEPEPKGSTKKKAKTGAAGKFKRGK
Sequence of FEN1 D181A (P39748 whole entry D181A): as the sequence (P39748 whole entry) above, with D181A counted along it

B1: T1:U1:19DNA* equilibrating 5' DNA flap (structured_DNA)
DNA 1: GTCGACCTGCAGCCCAAGCTTGCGTTGCTG
DNA 2: CAGCAACGCAAGCTTGC
DNA 3: ATGTGGAAAATCTCTAGCAGGCTGCAGGTCGAC
Question: What does the source list for B1?
Answer: binding result ([1]; label: 5'-32P on 19DNA, equilibrating double flap: 19 nt 5' DNA flap, 1 nt 3' flap): no binding; binding result [2]: binds; binding result [3]: binds

B2: RNA44 ssRNA (ssRNA)
RNA: UCAACGUGGGCAAAGAAUGUCCUACGUCCGAUACGGAUAAUCGC
Question: With B2 as the binder, how does the binding signal [4] read?
Answer: 3 fold lower affinity than RNA flap substrates

B3: T2:U2:RNA44* 5' RNA flap (mixed)
DNA 1: GCGATTATCCGTATCGGACGTAGGAAGCCTGCCATTTGATGGTC
DNA 2: GACCATCAAATGGCAGGCTG
RNA: B2 RNA
Question: Which binding signal [5] does the source give for B3 here?
Answer: 3 fold more cold RNA44 for half competition than labeled ssRNA needs

B4: T6:D1:RNA44* R-loop (mixed)
DNA 1: CTGCGTCGGCTTAAGATGGTGCGATTATCCGTATCGGACGTAGGACATTCTTTGCCCACGTTGATGGGTAGATAGCCTAACCGG
DNA 2: CCGGTTAGGCTATCTACCCATAAGTTTATTCCCTGCTCTTAGCAGATGGAGTCTGTGAACTGCAATCAATACCATCTTAAGCCGACGCAG
RNA: B2 RNA
Question: Does B4 bind ([1]; label: 5'-32P on RNA44, R-loop without RNA flap)?
Answer: binds

B5: U3:T2:RNA44* 5' RNA flap with 20 nt 3' flap (mixed)
DNA 1: B3 DNA 1
DNA 2: GACCATCAAATGGCAGGCTGAACGAACAAAGCGAAAGCG
RNA: B2 RNA
Question: Does B5 bind [6]?
Answer: binds
